Target: the molecule itself
Experiment: SAXS

B1: HsRXRαΔNTD (130-462) (domain or fragment)
chain: FTKHICAICGDRSSGKHYGVYSCEGCKGFFKRTVRKDLTYTCRDNKDCLIDKRQRNRCQYCRYQKCLAMGMKREAVQEERQRGKDRNENEVESTSSANEDMPVERILEAELAVEPKTETYVEANMGLNPSSPNDPVTNICQAADKQLFTLVEWAKRIPHFSELPLDDQVILLRAGWNELLIASFSHRSIAVKDGILLATGLHVHRNSAHSAGVGAIFDRVLTELVSKMRDMQMDKTELGCLRAIVLFNPDSKGLSNPAEVEALREKVYASLEAYCKHKYPEQPGRFAKLLLRLPALRSIGLKCLEHLFFFKLIGDTPIDTFLMEMLEAPHQMT
- stoichiometry N: 2
